The test system of the test is stromal cells isolated from adipose tissue. Kind of test: Effect of compounds on osteoblast differentiation of adipose stromal cells, measured by secreted osteocalcin. The format is cell-based, human. As to conditions: differentiated as in Example 2 in presence and absence of compound; secreted osteocalcin assay; data not shown. As for the experimental part: Adipose stromal cells were isolated as described in Example 1 and then treated as follows to induce differentiation into osteoblasts. Stromal cells were plated in 24-well and/or 6-well tissue culture plates in stromal cell medium (see above) at a density of about 22,000 cells/cm^2. After 24 hours, the stromal cell medium was replaced with osteoblast differentiation medium (DMEM with 10% fetal bovine serum (v/v); 10 mM β-glycerophosphate; 50 μg/ml ascorbate-2-phosphate; 60 U/ml penicillin; 60 U/ml streptomycin; 15 μg/ml amphotericin B). The osteoblast differentiation medium was replaced with fresh medium every 3 days for 3 weeks. When changing the media, one ml of conditioned media was collected and stored at −80° C. for later analysis of secreted factors. […]
Biochemical changes indicative of osteoblast differentiation were also assessed. Osteocalcin is an osteoblast-specific secreted protein that can be measured by ELISA (Intact Human Osteocalcin K EIA kit, catalog number BT-460, Biomedical Technologies, Inc., Stoughton, Mass.). […]
Cultures of stromal cells isolated from adipose tissue according to the method described in Example 1 were used to study the effect compounds of interest on osteoblast differentiation. […] Differentiation was measured by assays for secreted osteocalcin. […]

B1: bone morphogenetic protein 4: bone morphogenetic protein, known osteoblast differentiation promoting agent (protein, UniProt P12644 293-408, looked up)
Bone morphogenetic protein 4: SPKHHSQRARKKNKNCRRHSLYVDFSDVGWNDWIVAPPGYQAFYCHGDCPFPLADHLNSTNHAIVQTLVNSVNSSIPKACCVPTELSAISMLYLDEYDKVVLKNYQEMVVEGCGCR
As for B1, the “effect on osteoblast differentiation” value is on record as “positively affect osteoblast differentiation”.

The values above are taken from patent US20160068813A1, “DIFFERENTIATION OF ADIPOSE STROMAL CELLS INTO OSTEOBLASTS AND USES THEREOF” (Artecel Sciences Inc., priority 1997, published 2016).
